Values quoted from earlier work as cited in PMC8619967.
Where two headings read alike, the source gives them in different places.

Assays:
[1] = molecular target: HIV-1 capsid (Human immunodeficiency virus 1) (UniProt O93182)
[2] = molecular target: HIV-1 capsid (Human immunodeficiency virus 1) (UniProt O93182); remark: listed apart in the source
[3] = molecular target: HIV-1 CA-NC nanotubes CA-NC (Human immunodeficiency virus 1) (UniProt O93182)
Chain of HIV-1 CA-NC nanotubes CA-NC (Human immunodeficiency virus 1) (O93182 133-433): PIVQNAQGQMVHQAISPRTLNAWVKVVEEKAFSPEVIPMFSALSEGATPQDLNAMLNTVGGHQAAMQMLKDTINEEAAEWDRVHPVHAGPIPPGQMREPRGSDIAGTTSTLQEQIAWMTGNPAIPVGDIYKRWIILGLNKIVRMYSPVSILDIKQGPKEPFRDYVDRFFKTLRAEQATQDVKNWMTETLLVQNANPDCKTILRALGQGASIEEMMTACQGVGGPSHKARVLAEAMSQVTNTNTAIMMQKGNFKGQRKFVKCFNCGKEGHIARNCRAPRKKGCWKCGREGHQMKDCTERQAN

Chain of HIV-1 capsid (Human immunodeficiency virus 1) (O93182 133-363): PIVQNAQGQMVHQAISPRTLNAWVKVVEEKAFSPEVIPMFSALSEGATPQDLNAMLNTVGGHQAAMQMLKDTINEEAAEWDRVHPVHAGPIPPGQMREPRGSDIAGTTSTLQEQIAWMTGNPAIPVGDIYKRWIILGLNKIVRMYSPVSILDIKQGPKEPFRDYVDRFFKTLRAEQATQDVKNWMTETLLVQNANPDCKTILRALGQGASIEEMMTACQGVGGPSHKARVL
Chain of TRN-1 (Q92973 whole entry): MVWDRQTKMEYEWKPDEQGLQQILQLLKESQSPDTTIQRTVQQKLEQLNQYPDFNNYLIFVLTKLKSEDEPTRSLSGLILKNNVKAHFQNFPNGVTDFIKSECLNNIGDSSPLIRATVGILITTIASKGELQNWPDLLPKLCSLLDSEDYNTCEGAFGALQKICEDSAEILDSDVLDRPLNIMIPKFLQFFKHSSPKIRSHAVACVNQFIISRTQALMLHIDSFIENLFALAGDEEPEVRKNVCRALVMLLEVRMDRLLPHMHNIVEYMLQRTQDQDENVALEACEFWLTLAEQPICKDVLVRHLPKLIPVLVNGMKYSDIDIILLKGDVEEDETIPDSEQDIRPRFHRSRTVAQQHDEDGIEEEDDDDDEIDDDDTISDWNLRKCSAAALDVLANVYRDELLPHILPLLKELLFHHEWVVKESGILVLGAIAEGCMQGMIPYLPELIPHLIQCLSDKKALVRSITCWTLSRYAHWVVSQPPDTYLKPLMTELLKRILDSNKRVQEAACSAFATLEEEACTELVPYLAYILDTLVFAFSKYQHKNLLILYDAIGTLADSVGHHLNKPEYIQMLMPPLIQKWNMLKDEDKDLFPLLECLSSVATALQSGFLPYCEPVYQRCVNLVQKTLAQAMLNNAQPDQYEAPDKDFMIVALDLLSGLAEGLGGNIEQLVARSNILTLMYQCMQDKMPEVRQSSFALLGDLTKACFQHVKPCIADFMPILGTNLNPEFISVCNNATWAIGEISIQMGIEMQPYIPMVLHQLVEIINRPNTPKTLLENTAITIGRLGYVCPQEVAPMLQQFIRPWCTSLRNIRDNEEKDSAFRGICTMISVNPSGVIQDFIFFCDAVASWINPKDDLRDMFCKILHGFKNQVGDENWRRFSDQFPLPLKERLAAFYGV
Chain of NUP358 CycH (P49792 3067-3223): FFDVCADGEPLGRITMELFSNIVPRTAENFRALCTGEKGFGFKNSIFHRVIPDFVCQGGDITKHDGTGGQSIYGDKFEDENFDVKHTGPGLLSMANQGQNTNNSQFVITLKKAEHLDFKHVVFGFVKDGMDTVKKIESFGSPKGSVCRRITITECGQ

In the case of NUP153 FG-motif (from UniProt P49790), the Kd [1] is listed as 50 µM.

In the case of NUP358 CycH (from UniProt P49792), the Kd [2] is listed as 200 µM.

For TRN-1 (from UniProt Q92973), the Kd [3] is given as 0.07 µM.
